Data published in patent US20260242735A1 (UNIVERSIT T BASEL, published 2026).

Tests used:
Test in all cases: alanine scan, flow cytometry, HEK293-T;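 further: antibody binding to each alanine-substituted CD33 mutant expressed transiently in HEK293-T, read as fluorescence minus background, mean of duplicates, relative to wild-type CD33 set as 100%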
human CD33 L187A = human CD33 L187A (human, UniProt P20138 18-364)
human CD33 I176A = human CD33 I176A (human, UniProt P20138 18-364)
human CD33 V231A = human CD33 V231A (human, UniProt P20138 18-364)
human CD33 P184A = human CD33 P184A (human, UniProt P20138 18-364)
human CD33 T185A = human CD33 T185A (human, UniProt P20138 18-364)
human CD33 P235A = human CD33 P235A (human, UniProt P20138 18-364)
human CD33 N209A = human CD33 N209A (human, UniProt P20138 18-364)
human CD33 E224A = human CD33 E224A (human, UniProt P20138 18-364)
human CD33 G241A = human CD33 G241A (human, UniProt P20138 18-364)
human CD33 R190A = human CD33 R190A (human, UniProt P20138 18-364)
human CD33 P175A = human CD33 P175A (human, UniProt P20138 18-364)
human CD33 T222A = human CD33 T222A (human, UniProt P20138 18-364)
human CD33 P238A = human CD33 P238A (human, UniProt P20138 18-364)
human CD33 A168S = human CD33 A168S (human, UniProt P20138 18-364)
human CD33 A183S = human CD33 A183S (human, UniProt P20138 18-364)
human CD33 Y233A = human CD33 Y233A (human, UniProt P20138 18-364)
human CD33 R202A = human CD33 R202A (human, UniProt P20138 18-364)
human CD33 Q171A = human CD33 Q171A (human, UniProt P20138 18-364)
human CD33 Q171A, sequence (P20138 18-364 Q171A limits assumed): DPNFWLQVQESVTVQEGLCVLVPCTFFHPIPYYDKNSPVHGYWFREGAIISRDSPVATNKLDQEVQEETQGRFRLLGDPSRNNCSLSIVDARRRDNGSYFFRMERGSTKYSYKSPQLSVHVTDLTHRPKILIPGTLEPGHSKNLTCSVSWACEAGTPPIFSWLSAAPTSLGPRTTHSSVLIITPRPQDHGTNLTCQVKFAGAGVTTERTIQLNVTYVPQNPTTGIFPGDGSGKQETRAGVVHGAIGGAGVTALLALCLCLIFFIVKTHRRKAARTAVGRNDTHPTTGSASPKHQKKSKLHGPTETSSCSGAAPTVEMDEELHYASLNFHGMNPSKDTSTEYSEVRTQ

human CD33 A168S, sequence (P20138 18-364 A168S limits assumed): as the sequence (P20138 18-364 Q171A limits assumed) above, with A151S, A154Q counted along it
human CD33 T185A, sequence (P20138 18-364 T185A limits assumed): as the sequence (P20138 18-364 Q171A limits assumed) above, with A154Q, T168A counted along it
human CD33 E224A, sequence (P20138 18-364 E224A limits assumed): as the sequence (P20138 18-364 Q171A limits assumed) above, with A154Q, E207A counted along it
human CD33 L187A, sequence (P20138 18-364 L187A limits assumed): as the sequence (P20138 18-364 Q171A limits assumed) above, with A154Q, L170A counted along it
human CD33 R190A, sequence (P20138 18-364 R190A limits assumed): as the sequence (P20138 18-364 Q171A limits assumed) above, with A154Q, R173A counted along it
human CD33 G241A, sequence (P20138 18-364 G241A limits assumed): as the sequence (P20138 18-364 Q171A limits assumed) above, with A154Q, G224A counted along it
human CD33 Y233A, sequence (P20138 18-364 Y233A limits assumed): as the sequence (P20138 18-364 Q171A limits assumed) above, with A154Q, Y216A counted along it
human CD33 V231A, sequence (P20138 18-364 V231A limits assumed): as the sequence (P20138 18-364 Q171A limits assumed) above, with A154Q, V214A counted along it
human CD33 I176A, sequence (P20138 18-364 I176A limits assumed): as the sequence (P20138 18-364 Q171A limits assumed) above, with A154Q, I159A counted along it
human CD33 R202A, sequence (P20138 18-364 R202A limits assumed): as the sequence (P20138 18-364 Q171A limits assumed) above, with A154Q, R185A counted along it
human CD33 P175A, sequence (P20138 18-364 P175A limits assumed): as the sequence (P20138 18-364 Q171A limits assumed) above, with A154Q, P158A counted along it
human CD33 N209A, sequence (P20138 18-364 N209A limits assumed): as the sequence (P20138 18-364 Q171A limits assumed) above, with A154Q, N192A counted along it
human CD33 P184A, sequence (P20138 18-364 P184A limits assumed): as the sequence (P20138 18-364 Q171A limits assumed) above, with A154Q, P167A counted along it
human CD33 P235A, sequence (P20138 18-364 P235A limits assumed): as the sequence (P20138 18-364 Q171A limits assumed) above, with A154Q, P218A counted along it
human CD33 T222A, sequence (P20138 18-364 T222A limits assumed): as the sequence (P20138 18-364 Q171A limits assumed) above, with A154Q, T205A counted along it
human CD33 A183S, sequence (P20138 18-364 A183S limits assumed): as the sequence (P20138 18-364 Q171A limits assumed) above, with A154Q, A166S counted along it
human CD33 P238A, sequence (P20138 18-364 P238A limits assumed): as the sequence (P20138 18-364 Q171A limits assumed) above, with A154Q, P221A counted along it

Mean % WT Binding (human CD33 L187A) | Mean % WT Binding (human CD33 I176A) | Mean % WT Binding (human CD33 V231A) | Mean % WT Binding (human CD33 P184A) | Mean % WT Binding (human CD33 T185A) | Mean % WT Binding (human CD33 P235A) | Mean % WT Binding (human CD33 N209A) | Mean % WT Binding (human CD33 E224A) | Mean % WT Binding (human CD33 G241A) | Mean % WT Binding (human CD33 R190A) | Mean % WT Binding (human CD33 P175A) | Mean % WT Binding (human CD33 T222A) | Mean % WT Binding (human CD33 P238A) | Mean % WT Binding (human CD33 A168S) | Mean % WT Binding (human CD33 A183S) | Mean % WT Binding (human CD33 Y233A) | Mean % WT Binding (human CD33 R202A) | Mean % WT Binding (human CD33 Q171A) | Binder
95.5% | 100% | 153% | 103% | 105% | 120% | 91.7% | 83.2% | 128% | 124% | 106% | 117% | 122% | 99.2% | 117% | 146% | 128% | 138% | Refmab #3 (antibody, V domains shown, In the alanine scan antibodies were used as IgG or Fab) VH: QVQLVQSGAEVKKPGSSVKVSCKASGYTFTDYNMHWVRQAPGQGLEWIGYIYPYNGGTGYNQKFKSKATITADESTNTAYMELSSLRSEDTAVYYCARGRPAMDYWGQGTLVTVSS VL: DIQMTQSPSSLSASVGDRVTITCRASESVDNYGISFMNWFQQKPGKAPKLLIYAASNQGSGVPSRFSGSGSGTDFTLTISSLQPDDFATYYCQQSKEVPWTFGQGTKVEIK
144% | 124% | 112% | 111% | 118% | 108% | 104% | 102% | 111% | 114% | 103% | 121% | 119% | 110% | 119% | 107% | 112% | 90% | Refmab #2 (antibody, V domains shown, In the alanine scan antibodies were used as IgG or Fab) VH: QVQLVQSGAEVKKPGSSVKVSCKASGGTFSDYAISWVRQAPGQGLEWMGRIIPILGVADYAQKFQGRVTITADKSTRTAYMELSSLRSEDTAVYYCARNWADAFDIWGQGTMVTVSS VL: DIQLTQSPSSLSASVGDRVTITCRASQGISSVLAWYQQKPGKAPKLLIYDASSLESGVPSRFSGSGSGTDFTLTISSLQPEDFATYYCQQFDSSITFGQGTKLEIK
